Reference: patent US20260242735A1 (UNIVERSIT T BASEL, published 2026)

Assays:
[1] = molecular target: human CD33 C41A (human, UniProt P20138 18-364); assay: alanine scan, flow cytometry;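 also: HEK293-T cells transiently expressing single-residue alanine mutants of CD33 (alanine swapped to serine), antibody binding read by fluorescence in duplicate, background-subtracted, expressed relative to wild-type CD33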
[2] = molecular target: human CD33 G94A (human, UniProt P20138 18-364); assay: alanine scan, flow cytometry, HEK293-T;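 also: antibody binding to each alanine-substituted CD33 mutant expressed transiently in HEK293-T, read as fluorescence minus background, mean of duplicates, relative to wild-type CD33 set as 100%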
[3] = molecular target: T1, human CD33 R144A (human, UniProt P20138 18-364); assay: alanine scan, flow cytometry, HEK293-T;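 also: antibody binding to each alanine-substituted CD33 mutant expressed transiently in HEK293-T, read as fluorescence minus background, mean of duplicates, relative to wild-type CD33 set as 100%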
T1 construct: alanine scan clone, transfected HEK293-T
T1 sequence (P20138 18-364 R144A limits assumed): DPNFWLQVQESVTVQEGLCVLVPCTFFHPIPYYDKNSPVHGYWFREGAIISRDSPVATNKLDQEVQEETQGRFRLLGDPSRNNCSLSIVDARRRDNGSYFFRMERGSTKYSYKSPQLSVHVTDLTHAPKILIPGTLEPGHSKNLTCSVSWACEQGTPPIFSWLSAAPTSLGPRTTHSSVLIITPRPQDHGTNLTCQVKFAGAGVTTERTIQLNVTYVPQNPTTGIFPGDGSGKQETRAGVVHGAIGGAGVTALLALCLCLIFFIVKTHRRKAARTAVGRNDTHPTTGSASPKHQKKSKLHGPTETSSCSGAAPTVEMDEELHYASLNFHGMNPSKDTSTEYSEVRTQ

human CD33 C41A, sequence (P20138 18-364 C41A limits assumed): as the sequence (P20138 18-364 R144A limits assumed) above, with C24A, A127R counted along it
human CD33 G94A, sequence (P20138 18-364 G94A limits assumed): as the sequence (P20138 18-364 R144A limits assumed) above, with G77A, A127R counted along it

Row | Binder | Mean % WT Binding [1] [% WT] | also measured
1 | Refmab #3 (antibody, V domains shown, Full-length format is human IgG1 Fc silent (PG-LALA); The alanine scan used IgG or Fab) VH: QVQLVQSGAEVKKPGSSVKVSCKASGYTFTDYNMHWVRQAPGQGLEWIGYIYPYNGGTGYNQKFKSKATITADESTNTAYMELSSLRSEDTAVYYCARGRPAMDYWGQGTLVTVSS VL: DIQMTQSPSSLSASVGDRVTITCRASESVDNYGISFMNWFQQKPGKAPKLLIYAASNQGSGVPSRFSGSGSGTDFTLTISSLQPDDFATYYCQQSKEVPWTFGQGTKVEIK | 30.7 | –
2 | Refmab #4 (antibody, V domains shown, Full-length format is human IgG1 Fc silent (PG-LALA); The alanine scan used IgG or Fab) VH: QVQLVQSGAEVKKPGESVKVSCKASGYTFTNYGMNWVKQAPGQGLEWMGWINTYTGEPTYADKFQGRVTMTTDTSTSTAYMEIRNLGGDDTAVYYCARWSWSDGYYVYFDYWGQGTSVTVSS VL: DIVMTQSPDSLTVSLGERTTINCKSSQSVLDSSTNKNSLAWYQQKPGQPPKLLLSWASTRESGIPDRFSGSGSGTDFTLTIDSPQPEDSATYYCQQSAHFPITFGQGTRLEIK | 9.8 | –
3 | Refmab #5 (antibody, V domains shown, Full-length format is human IgG1 Fc silent (PG-LALA); also made as Fab; The alanine scan used IgG or Fab) VH: QVQLVQSGAEVKKPGASVKVSCKASGYTFTNYDINWVRQAPGQGLEWIGWIYPGDGSTKYNEKFKAKATLTADTSTSTAYMELRSLRSDDTAVYYCASGYEDAMDYWGQGTTVTVSS VL: DIQMTQSPSSLSASVGDRVTINCKASQDINSYLSWFQQKPGKAPKTLIYRANRLVDGVPSRFSGSGSGQDYTLTISSLQPEDFATYYCLQYDEFPLTFGGGTKVEIK | – | Mean % WT Binding [2]: 92.2 % WT binding
4 | Refmab #5 (antibody, V domains shown, The alanine scan used IgG or Fab) VH: QVQLVQSGAEVKKPGASVKVSCKASGYTFTNYDINWVRQAPGQGLEWIGWIYPGDGSTKYNEKFKAKATLTADTSTSTAYMELRSLRSDDTAVYYCASGYEDAMDYWGQGTTVTVSS VL: DIQMTQSPSSLSASVGDRVTINCKASQDINSYLSWFQQKPGKAPKTLIYRANRLVDGVPSRFSGSGSGQDYTLTISSLQPEDFATYYCLQYDEFPLTFGGGTKVEIK | – | Mean % WT Binding [3]: 71 % WT binding
